Measured values as given in article PMC12554172, “Systematic analysis of the RGS2 degron reveals characteristics of substrate recognition by the F-box protein FBXO44” (The Journal of Biological Chemistry, 2025).

Tests used:
HEK-293T cells = assay: RGS2 protein levels, baseline and with proteasome inhibitor MG-132; type: cell-based, human; settings: Fig. S4, five or six independent experiments; for basal RGS2 protein expression versus RGS2^WT (Fig. S4): no MG-132; for change of RGS2 protein levels with MG-132 (Fig. S4): MG-132 10 μM, 4 h
Excerpt: Representative Western blot and quantification of three independent experiments. […] Representative Western blot and quantification of three independent experiments. Representative Western blot (D), quantification of knockdown efficiency (E), and effects on RGS protein levels (F) when FBXO44 is knocked down using siRNA. […] Result of three independent experiments. ∗p < 0.05; ∗∗p < 0.01; ∗∗∗p < 0.001 using two-way ANOVA followed by Tukey's post hoc test for pairwise comparisons (C, E, and F). FBXO44, F-box only protein 44; HEK-293T, human embryonic kidney-293T cell line; RGS2, regulator of G protein signaling 2.
Cells were harvested on ice in lysis buffer containing protease inhibitors (50 mM Tris–HCl [pH 7.4], 5 mM NaCl, 0.5 mM EDTA, 1% Triton X-100, 10% cOmplete Protease Inhibitor Cocktail EDTA-free). Lysates were bath sonicated for 10 min at 4 °C, centrifuged at 6000g for 3 min, and the supernatant was used for SDS-PAGE and immunoblotting. Total protein concentration was determined using the Pierce BCA Protein Assay Kit. Samples were diluted to 1 μg/μl in protein sample loading buffer (Li-Cor Biosciences).
Equal amounts of protein in each lane were resolved on a 12% SDS-PAGE gel for 1 h at 160 V. Samples were transferred to an Immobilon-FL PVDF membrane (Millipore) and subjected to Western immunoblot analysis using Li-Cor blocking buffer for both blocking and antibody diluents. Membranes were blocked for 1 h, then incubated for 2 h in primary antibodies as described under “Antibodies,” and finally incubated for 1 h with IRDye secondary antibodies directed at the species of the primary antibody. Following each antibody incubation, membranes were washed four times in PBS with 0.1% Tween-20. Membranes were imaged using an Azure600 imaging system (Azure Biosystems).
Figure S4. Effect of RGS2 mutations on protein stability. Representative western blot and quantification of five or six independent experiments (varies by mutation). The proteasome inhibitor MG-132 (10 μM, 4 h) […]
P15R were predicted to destabilize RGS2, due to increased binding to FBXO44 in the peptide microarray. […]
significant. *P<0.05; ***P<0.001 using two-way ANOVA followed by Tukey’s post hoc test for pairwise

FBXO44^FBA = target: T1, FBXO44^FBA (Homo sapiens, UniProt Q9H4M3); assay: Peptide microarray (PEPperPRINT), FLAG-FBXO44^FBA binding; settings: 2 μg/ml FBXO44^FBA overnight at 4 °C; for Mean % difference from parent peptide (FLAG immunoreactivity): Table S1, RGS2^5–16 single-residue substitution, PBS 0.005% Tween pH 7.4, anti-FLAG DyLight800 fluorescence, three independent experiments with three technical replicates each; for FBXO44^FBA binding in peptide microarray (in words): versus parent RGS2^5–16 peptide, fluorescence
T1 construct: we expressed and purified only this domain for all in vitro studies; 6xHis (N, cleaved yes); MBP (N, cleaved yes); made in house; host or cells: Escherichia coli Rosetta BL21 (λDE3)
T1 sequence (Q9H4M3 71-252 limits assumed): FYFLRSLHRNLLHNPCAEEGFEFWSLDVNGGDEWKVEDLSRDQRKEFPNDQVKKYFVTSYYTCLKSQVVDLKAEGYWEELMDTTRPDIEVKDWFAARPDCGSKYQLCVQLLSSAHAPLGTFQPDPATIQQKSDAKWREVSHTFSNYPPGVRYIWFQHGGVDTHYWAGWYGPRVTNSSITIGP
Excerpt: To do so, we utilized a custom peptide microarray (PEPperPRINT GmbH). The design of this array was twofold: (1) substitution at each position with every other natural eukaryotic amino acid; (2) truncation of the peptide from the C terminus. We assessed the binding of FLAG-FBXO44^FBA to the array utilizing fluorescence immunoreactivity corresponding to the amount of FLAG-FBXO44^FBA bound. […] Substitutions at Asp^12 were not only tolerated but also seemed to improve binding in every case (Fig. 3B). This, combined with the fact that substituting any residue in His^11–Met^16 with Arg, and in most cases with Lys, improved FBXO44^FBA binding, indicating the presence of negative charges at the binding interface.
Figure 2 Systematic mutation of the RGS2 degron alters FBXO44^FBA binding. A custom microarray (PEPperPRINT) was designed where each position of the RGS2^5–16 peptide was substituted for each natural amino acid. We also included truncated peptides on the array. This was incubated with purified FBXO44^FBA and probed with α-FLAG. A, a representative scan of a peptide microarray (top) and a truncated peptide (bottom). B, heatmap of mean fluorescence of quantified microarray scans. The scale represents the mean fluorescence in percentage points across all replicates, normalized to the signal obtained with the original residue at each position. C, heatmap of standard deviation of quantified microarray scans. The scale represents the standard deviation in percentage points across all replicates. […] Residues are color-coded based on properties: blue, positive charge; red, negative charge; orange, uncharged polar; green, hydrophobic; yellow, Cys (C); bright green, Pro (P); and black, Gly (G). […] Results of three independent experiments with three technical replicates each. For a statistical significance summary, see Table S1. FBXO44, F-box only protein 44; RGS2, regulator of G protein signaling 2.
Figure 3 Effects of RGS2^5–16 peptide residue changes on FBXO44^FBA binding. Data are presented as % FLAG immunoreactivity, as compared with the parent peptide residue. […] The original residue is marked in each graph with a vertical dotted line. Boxes extend from the 25th to 75th percentile with a line marking the median. Whiskers extend to the minimum and maximum. Results of three independent experiments with three technical replicates each. Data were analyzed by two-way ANOVA, with Tukey's post hoc test for pairwise comparison (simple effect within columns). Statistical significance is summarized in Table S1 and color-coded according to the legend. FBXO44, F-box only protein 44; RGS2, regulator of G protein signaling 2.
The microarray slide was seated into the incubation tray according to PEPperPRINT's instructions. The array well was then incubated in washing buffer (PBS) with 0.005% Tween (Sigma; P1379, pH 7.4) at room temperature for 15 min on an orbital shaker. Washing buffer was aspirated, and the array was then incubated with Rockland blocking buffer at room temperature for 30 min on an orbital shaker. Blocking buffer was then aspirated, and the array was incubated in staining buffer (washing buffer with 10% Rockland blocking buffer) at room temperature for 15 min on an orbital shaker. Staining buffer was aspirated, and purified FBXO44 FBA domain diluted to 2 μg/ml in staining buffer was added. The array was then placed on an orbital shaker overnight at 4 °C. The FBA domain solution was removed, and an array was washed three times with washing buffer. After the third array was incubated in staining buffer for 15 min at 4 °C on an orbital shaker. The array was then incubated with antibody dilution (anti-FLAG DyLight800 and anti-HA DyLight680, both diluted 1:2000 in staining buffer) for 45 min at 4° C on an orbital shaker. The array was then washed three times with washing buffer. […]

[1] = treatment of certain blood cancers; background statement; cited from earlier work
Excerpt: RGS2 is rapidly and constitutively degraded by the ubiquitin–proteasomal system ([12], [13]). Dysfunction of this crucial system can lead to accumulation of misfolded or aged proteins, cell cycle arrest, and uncontrolled cell proliferation ([14], [15], [16], [17]), driving various pathologies, including multiple cancers and cardiovascular disease ([18], [19]). Proteasome inhibitors, such as bortezomib (Velcade) and carfilzomib, are used in the treatment of certain blood cancers ([20], [21]). However, the severe side effects associated with these drugs, including neuropathies, fatigue, and anem ...

Row | Molecule | Mean % difference from parent peptide (FLAG immunoreactivity) (FBXO44^FBA) | other results
1 | D12R: array RGS2^5–16 peptide, D12 substituted by R (MFLAVQHRCRPM) | 184.9% | basal RGS2 protein expression versus RGS2^WT (Fig. S4) (HEK-293T cells): trend towards decreased expression; FBXO44^FBA binding in peptide microarray (in words) (FBXO44^FBA): enhanced FBXO44^FBA binding
2 | CC(C)C[C@H](NC(=O)[C@H](CCc1ccccc1)NC(=O)CN1CCOCC1)C(=O)N[C@@H](Cc1ccccc1)C(=O)N[C@@H](CC(C)C)C(=O)[C@@]1(C)CO1 [carfilzomib] |  | severe side effects [1]: neuropathies, fatigue, and anemia
3 | C13L: array RGS2^5–16 peptide, C13 substituted by L (MFLAVQHDLRPM; UniProt P41220 5-16, looked up, variant C13L) | -88.83% | 
4 | C13H: array RGS2^5–16 peptide, C13 substituted by H (MFLAVQHDHRPM; UniProt P41220 5-16, looked up, variant C13H) | -83.62% | 
5 | D12N: array RGS2^5–16 peptide, D12 substituted by N (MFLAVQHNCRPM; UniProt P41220 5-16, looked up, variant D12N) | 55.82% | 
6 | C13I: array RGS2^5–16 peptide, C13 substituted by I (MFLAVQHDIRPM; UniProt P41220 5-16, looked up, variant C13I) | -87.24% | 
7 | C13T: array RGS2^5–16 peptide, C13 substituted by T | -86.63% | 
8 | C13F: array RGS2^5–16 peptide, C13 substituted by F (MFLAVQHDFRPM; UniProt P41220 5-16, looked up, variant C13F) | -82.91% | 
9 | CC(C)C[C@H](NC(=O)[C@H](Cc1ccccc1)NC(=O)c1cnccn1)B(O)O [bortezomib] |  | severe side effects [1]: neuropathies, fatigue, and anemia
10 | D12W: array RGS2^5–16 peptide, D12 substituted by W (MFLAVQHWCRPM; UniProt P41220 5-16, looked up, variant D12W) | 48.95% | 
11 | C13P: array RGS2^5–16 peptide, C13 substituted by P (MFLAVQHDPRPM; UniProt P41220 5-16, looked up, variant C13P) | -84.68% | 

More lines, main results first:

Row | Mean % difference from parent peptide (FLAG immunoreactivity) (FBXO44^FBA) | Molecule | other results
12 | 158% | P15R: array RGS2^5–16 peptide, P15 substituted by R (MFLAVQHDCRRM) | change of RGS2 protein levels with MG-132 (Fig. S4) (HEK-293T cells): none of these mutations resulted in significant changes in basal expression or response to MG-132; basal RGS2 protein expression versus RGS2^WT (Fig. S4) (HEK-293T cells): none of these mutations resulted in significant changes in basal expression; FBXO44^FBA binding in peptide microarray (in words) (FBXO44^FBA): enhanced FBXO44^FBA binding
13 | 34.22% | D12F: array RGS2^5–16 peptide, D12 substituted by F (MFLAVQHFCRPM; UniProt P41220 5-16, looked up, variant D12F) | 
14 | 124.2% | D12K: array RGS2^5–16 peptide, D12 substituted by K (MFLAVQHKCRPM; UniProt P41220 5-16, looked up, variant D12K) | 
15 | 43.97% | D12C: array RGS2^5–16 peptide, D12 substituted by C | 
16 | 42.32% | D12M: array RGS2^5–16 peptide, D12 substituted by M (MFLAVQHMCRPM; UniProt P41220 5-16, looked up, variant D12M) | 
17 | 32.54% | R14W: array RGS2^5–16 peptide, R14 substituted by W (MFLAVQHDCWPM) | FBXO44^FBA binding in peptide microarray (in words) (FBXO44^FBA): modest effects, with only one or two substitutions for each reaching significance
18 | 26.71% | P15C: array RGS2^5–16 peptide, P15 substituted by C | 
19 | -33.89% | M16A: array RGS2^5–16 peptide, M16 substituted by A (MFLAVQHDCRPA; UniProt P41220 5-16, looked up, variant M16A) | 
20 | -87.05% | C13S: array RGS2^5–16 peptide, C13 substituted by S (MFLAVQHDSRPM; UniProt P41220 5-16, looked up, variant C13S) | 
21 | 30.03% | M16C: array RGS2^5–16 peptide, M16 substituted by C | 
22 | -30.63% | P15G: array RGS2^5–16 peptide, P15 substituted by G | change of RGS2 protein levels with MG-132 (Fig. S4) (HEK-293T cells): none of these mutations resulted in significant changes in basal expression or response to MG-132; basal RGS2 protein expression versus RGS2^WT (Fig. S4) (HEK-293T cells): none of these mutations resulted in significant changes in basal expression; FBXO44^FBA binding in peptide microarray (in words) (FBXO44^FBA): decreased binding
